# Test system: Escherichia coli TOP10
# Experiment: shrunken log2 fold change of peptide-encoding DNA abundance (4.5 h post-induction vs induction); higher = less antimicrobial activity (less host growth inhibition)
# Settings: time post-induction: 4.5 h; library: site-saturation at positions 5, 18, 19, 20
# 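Note: peptides expressed intracellularly from a pBAD plasmid library in pooled LB shake-flask culture, induced with 0.3% L-arabinose, DNA abundance read by NGS, three biological replicates, DESeq2 with apeglm shrinkage.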
row,Sequence,shrunken log2 fold change
1,RRIRWRPPRLPRPRPRPTMTPRP,0.328
2,RRIRCRPPRLPRPRPRPTTAPRP,0.166
3,RRIRRRPPRLPRPRPRPHGWPRP,0.784
4,RRIRCRPPRLPRPRPRPGGNPRP,-0.0575
5,RRIRLRPPRLPRPRPRPMMNPRP,-0.18
6,RRIRWRPPRLPRPRPRPSMSPRP,0.0258
7,RRIRYRPPRLPRPRPRPYYGPRP,-0.0846
8,RRIRARPPRLPRPRPRPDKCPRP,-0.0816
9,RRIRVRPPRLPRPRPRPPLHPRP,0.128
10,RRIRNRPPRLPRPRPRPEYYPRP,-0.0216
11,RRIRARPPRLPRPRPRPPWRPRP,0.816
12,RRIRLRPPRLPRPRPRPPIMPRP,-0.239
13,RRIRRRPPRLPRPRPRPESDPRP,0.6
14,RRIRRRPPRLPRPRPRPMEYPRP,-0.0405
15,RRIRLRPPRLPRPRPRPAWNPRP,0.133
16,RRIRRRPPRLPRPRPRPWHRPRP,-0.113
17,RRIRMRPPRLPRPRPRPQCKPRP,-0.0461
18,RRIRRRPPRLPRPRPRPYGLPRP,-0.0176
19,RRIRSRPPRLPRPRPRPTPVPRP,0.381
20,RRIRVRPPRLPRPRPRPSMKPRP,-0.363
21,RRIRVRPPRLPRPRPRPGFSPRP,-0.101
22,RRIRERPPRLPRPRPRPYWVPRP,-0.338
23,RRIRCRPPRLPRPRPRPCNPPRP,-0.23
24,RRIRSRPPRLPRPRPRPEEGPRP,0.0515
25,RRIRTRPPRLPRPRPRPLYRPRP,0.0015

row,Sequence,shrunken log2 fold change
1,RRIRNRPPRLPRPRPRPKMNPRP,-0.381
2,RRIRVRPPRLPRPRPRPDRKPRP,0.0279
3,RRIRMRPPRLPRPRPRPCIWPRP,0.0563
4,RRIRKRPPRLPRPRPRPLVKPRP,0.195
5,RRIRCRPPRLPRPRPRPPEMPRP,0.67
6,RRIRDRPPRLPRPRPRPWTQPRP,-0.124
7,RRIRKRPPRLPRPRPRPWPGPRP,0.342
8,RRIRTRPPRLPRPRPRPQQAPRP,-0.0444
9,RRIRYRPPRLPRPRPRPKGHPRP,-0.145
10,RRIRARPPRLPRPRPRPQWAPRP,0.156
11,RRIRYRPPRLPRPRPRPNSSPRP,0.0291
12,RRIRPRPPRLPRPRPRPEIKPRP,0.0782
13,RRIRERPPRLPRPRPRPRTKPRP,0.175
14,RRIRPRPPRLPRPRPRPVDQPRP,-0.256
15,RRIRCRPPRLPRPRPRPHVMPRP,-0.743
16,RRIRMRPPRLPRPRPRPNYCPRP,-0.0723
17,RRIRPRPPRLPRPRPRPFIAPRP,-0.342
18,RRIRDRPPRLPRPRPRPPFAPRP,0.427
19,RRIRNRPPRLPRPRPRPRYRPRP,-0.0876
20,RRIRDRPPRLPRPRPRPNDYPRP,-0.197
21,RRIRARPPRLPRPRPRPLVTPRP,0.178
22,RRIRQRPPRLPRPRPRPTAKPRP,0.151
23,RRIRERPPRLPRPRPRPMIDPRP,-0.28
24,RRIRERPPRLPRPRPRPRPYPRP,-0.0326
25,RRIRCRPPRLPRPRPRPLGPPRP,0.106

# — the supplement of paper PMC9112550, “Optimization of the antimicrobial peptide Bac7 by deep mutational scanning” (BMC Biology, 2022)
